{"source": "patent US20060148030A1", "about": "“Nuclear receptor err y 3” (FUJISAWA PHARMACEUTICAL CO., LTD, priority 2002, published 2006)", "molecules": {"B1": {"name": "ERRγ3: novel ERRγ isoform, nuclear receptor protein of 396 amino acids (SEQ ID NO: 2) lacking part of the DNA binding domain (protein, listed as Homo sapiens)", "chain": "MSNKDRHIDSSCSSFIKTEPSSPASLTDSVNHHSPGGSSDASGSYSSTMNGHQNGLDSPPLYPSAPILGGSGPVRKLYDDCSSTIVEDPQTKCEYMLNSMPKRLCLVCGDIASGYHYGVASCEACKAFFKRTIQGVRLDRVRGGRQKYKRRIDAENSPYLNPQLAQPAKKPYNKIVSHLLVAEPEKIYAMPDPTVPDSDIKALTTLCDLADRELVVIIGWAKHIPGFSTLSLADQMSLLQSAWMEILILGVVYRSLSFEDELVYADDYIMDEDQSKLAGLLDLNNAILQLVKKYKSMKLEKEEFVTLKAIALANSDSMHIEDVEAVQKLQDVLHEALQDYEAGQHMEDPRRAGKMLMTLPLLRQTSTKAVQHFYNIKLEGKVPMHKLFLEMLEAKV"}}, "target": "T1, PPARγ (Homo sapiens, UniProt P37231)", "T1 construct": "expressed in transfected cells; host or cells: CV-1 (African green monkey kidney)", "T1 sequence (P37231 1-477 isoform P37231-2)": "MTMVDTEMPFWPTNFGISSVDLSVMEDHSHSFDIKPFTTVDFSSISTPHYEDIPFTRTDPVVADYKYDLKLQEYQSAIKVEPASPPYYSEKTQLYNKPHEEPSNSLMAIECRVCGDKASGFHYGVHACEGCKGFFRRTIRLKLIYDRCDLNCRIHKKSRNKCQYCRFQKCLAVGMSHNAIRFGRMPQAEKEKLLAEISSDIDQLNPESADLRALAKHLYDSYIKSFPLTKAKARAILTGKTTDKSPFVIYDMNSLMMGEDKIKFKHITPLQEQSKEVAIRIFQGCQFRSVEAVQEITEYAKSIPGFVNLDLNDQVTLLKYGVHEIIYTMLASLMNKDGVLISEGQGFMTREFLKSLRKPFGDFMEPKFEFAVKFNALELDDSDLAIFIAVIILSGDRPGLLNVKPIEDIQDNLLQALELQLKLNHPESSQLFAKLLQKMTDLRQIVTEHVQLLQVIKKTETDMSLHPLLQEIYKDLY", "T1 sequence (P19793 1-462 partner)": "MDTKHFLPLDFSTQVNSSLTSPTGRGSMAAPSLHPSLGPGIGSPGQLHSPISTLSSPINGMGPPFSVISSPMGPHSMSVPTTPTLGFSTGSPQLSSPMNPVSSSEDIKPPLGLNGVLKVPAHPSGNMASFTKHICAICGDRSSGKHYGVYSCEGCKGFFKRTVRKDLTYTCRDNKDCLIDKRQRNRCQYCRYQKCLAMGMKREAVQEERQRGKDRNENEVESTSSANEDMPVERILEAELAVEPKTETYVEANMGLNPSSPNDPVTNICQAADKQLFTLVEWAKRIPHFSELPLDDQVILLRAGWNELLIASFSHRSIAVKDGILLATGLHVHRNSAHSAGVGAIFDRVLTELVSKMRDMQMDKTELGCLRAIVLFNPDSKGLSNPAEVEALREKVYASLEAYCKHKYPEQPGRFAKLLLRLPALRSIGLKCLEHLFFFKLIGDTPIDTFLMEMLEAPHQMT", "assay": "Reporter gene assay, ERRγ3 coexisted with PPARγ, pGVP2-PPRE1 in CV-1 cells", "format": "cell-based", "conditions": "10^−6 M rosiglitazone, FIG. 24", "protocol": "Transfection was performed as follows: CV-1 cells were resuspended in DMEM supplemented with 10% fetal bovine serum, 2000 U/l of penicillin G, and 100 mg/l of streptomycin to a concentration of 2×10^5 cells/2.5 ml. This was then seeded to a 6-well plate at 2.5 ml per well, and incubated for 18-24 hours in a CO2 incubator at 37° C. and 5% CO2. 1 μg of each of the expression plasmids for the transcription factors, the luciferase reporter plasmid, and another luciferase reporter plasmid used for normalization of the measured values (pRL-TK), were dissolved in Opti-MEM (Gibco BRL), to a total of 150 μl. […] Luciferase activity was measured using the Dual-Luciferase™ Reporter Assay System (Promega). […] The protocol for measurement was as follows: 50 μl of Luciferase Assay Reagent II was added to each well, stirred for 0.3 seconds, and measured for one second. 50 μl of Stop&Glo™ Reagent was then added, stirred for 0.3 seconds, and measured for one second. The measured values for firefly luciferase activity were corrected by dividing by the value for the Renilla luciferase activity, the internal control. Average values and standard errors were calculated from triplicate samples.\nThe effect of ligands on the function of ERRγ3 in enhancing the transcriptional activation function of peroxisome proliferator activated receptor (PPAR) α, β, or γ was evaluated using the reporter gene assay (FIG. 24). […]"}
{"molecule": "B1", "values": [{"measurement": "modifying effect on the transcriptional stimulation activity of PPARγ", "result": "did not show any significant modifying effect"}]}
